This note sets out measurements from article PMC12819141, “RNase MRP subunit composition and role in 40S ribosome biogenesis” (Nature Structural & Molecular Biology, 2025).

This experiment concerns the target T1, RPP29 (coexpressed with RMP24 in bacteria) (human, UniProt O95707 1-220).
T1 construct: RPP29 (POP4), human; codon-optimized bicistronic cassette with C18orf21/RMP24 in pGEX-6P-1; The pGEX-6P-1 vector adds GST to one of the two chains; Elution was by PreScission protease or by reduced glutathione; also called POP4; source: E. coli BL21-DE3, coexpressed with RMP24, purified (Glutathione-Agarose, S200 increase)
T1 sequence: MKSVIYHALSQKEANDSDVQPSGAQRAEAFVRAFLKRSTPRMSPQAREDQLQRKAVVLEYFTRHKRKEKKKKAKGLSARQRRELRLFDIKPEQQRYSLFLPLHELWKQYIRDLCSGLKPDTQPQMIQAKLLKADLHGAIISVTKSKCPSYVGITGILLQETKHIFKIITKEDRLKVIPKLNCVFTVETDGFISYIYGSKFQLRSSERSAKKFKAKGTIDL
Kind of experiment: SEC; RMP24 and RPP29 coexpressed in E. coli, isolated on Glutathione-Agarose, then passed over a Superdex S200 increase 10/300 GL column in 25 mM Tris HCl pH 8, 100 mM NaCl, 1 mM DTT; peak fractions on Coomassie-stained SDS–PAGE and LC–MS. The following applies: both partners purified. In general terms: SEC sorts molecules by how far they enter the pores of the column.

B1: RMP24 (coexpressed with RPP29 in bacteria) (natural protein, human, UniProt Q32NC0 1-220, looked up)
chain: MRQKHYLEAAARGLHDSCPGQARYLLWAYTSSHDDKSTFEETCPYCFQLLVLDNSRVRLKPKARLTPKIQKLLNREARNYTLSFKEAKMVKKFKDSKSVLLITCKTCNRTVKHHGKSRSFVSTLKSNPATPTSKLSLKTPERRTANPNHDMSGSKGKSPASVFRTPTSGQSVSTCSSKNTSKTKKHFSQLKMLLSQNESQKIPKVDFRNFLSSLKGGLLK
notes: C18orf21 (RMP24), human; codon-optimized bicistronic cassette with RPP29 in pGEX-6P-1; The pGEX-6P-1 vector adds GST to one of the two chains; also called C18orf21; full-length RMP24; source: E. coli BL21-DE3, coexpressed with RPP29, purified (Glutathione-Agarose, S200 increase)
For B1, the binding result is on record as “binds”.
